The supplement of paper PMC7877785
± gives the uncertainty stated by the source.

Assay: self-splicing fitness, log relative to wild type (ln ratio); higher = more splicing; Tetrahymena group I intron in knt gene, E. coli kanamycin selection, DiMSum; sequences stand for … in CUCUCU…GGAGGGAAAAGUUAUCAGGCAUGCACCUGGUAGCUAGUCUUUAAACCAAUAGAUUGCAUCGGUUUAAAAGGCAAGACCGUCAAAUUGCGGGAAAGGGGUCAACAGCCGUUCAGUACCAAGUCUCAGGGGAAACUUUGAGAUGGCCUUGCAAAGGGUAUGGUAAUAAGCUGACGGACAUGGUCCUAACCACGCAGCCAAGUCCUAAGUCAACAGAUCUUCUGUUGAUAUGGAUGCAGUUCACAGACUAAAUGUCGGUCGGGGAAGAUGUAUUCUUCUCAUAAGAUAUAGUCGGACCUCUCCUUAAUGGGAGCUAGCGGAUGAAGUGAUGCAACACUGGAGCCGCUGGGAACUAAUUUGUAUGCGAAAGUAUAUUGAUUAGUUUUGGAGUACUCGUGGUCG
Procedure, shortened: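 Fitness was computed with DiMSum as the error-weighted combination of replicate fold changes, kanamycin versus none, each normalised to wild type. The library randomised all eight intron nucleotides of the P1ex region, with the intron placed in the knt kanamycin-resistance gene on pET-22b(+) in E. coli BL21(DE3). Six replicate transformations were grown overnight at 37°C or 30°C on LB agar with or without 25 μg/mL kanamycin, plus 100 μg/mL carbenicillin, 50 μM IPTG and 0.2% rhamnose. Pooled colonies were amplicon-sequenced on an Illumina HiSeq 2500.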

Sequence | self-splicing fitness (ln) (30 °C) | self-splicing fitness (ln) (37 °C)
GUUAAGCAAUAUUACGUUUA | -2.74 ± 0.15 | -1.61 ± 0.11
UAGUAGCAAUAUUACGCCAG | -2.8 ± 0.15 | -1.94 ± 0.15
GGCAAGCAAUAUUACGGCUU | -0.985 ± 0.074 | 0.644 ± 0.12
UUACAGCAAUAUUACGAUGA | -0.445 ± 0.06 | 0.596 ± 0.078
CGCUAGCAAUAUUACGUAGC | -3.14 ± 0.31 | -1.68 ± 0.37
AGUAAGCAAUAUUACGGACU | -1.57 ± 0.15 | 0.25 ± 0.17
ACGGAGCAAUAUUACGGAGU | -2.53 ± 0.27 | -1.55 ± 0.18
ACCUAGCAAUAUUACGUUGA | -1.98 ± 0.087 | -1.54 ± 0.098
AGUGAGCAAUAUUACGGUGG | -3.06 ± 0.19 | -2.69 ± 0.3
UGGUAGCAAUAUUACGAACG | -0.892 ± 0.19 | 0.374 ± 0.22
AAGGAGCAAUAUUACGUAAU | -3.8 ± 0.16 | -2.27 ± 0.15
CCCUAGCAAUAUUACGAGCA | -2.64 ± 0.21 | -3.08 ± 0.18
AAGAAGCAAUAUUACGGCAC | -0.764 ± 0.08 | -0.298 ± 0.12
ACGUAGCAAUAUUACGUGAU | -3.19 ± 0.14 | -1.63 ± 0.12
GACCAGCAAUAUUACGGAUA | -0.244 ± 0.058 | 0.0596 ± 0.075
AACAAGCAAUAUUACGGCGC | -0.737 ± 0.1 | 0.0559 ± 0.12
GCCAAGCAAUAUUACGCCGA | -1.64 ± 0.15 | -0.102 ± 0.11
GGUGAGCAAUAUUACGGCCU | -2.79 ± 0.26 | -2.96 ± 0.43
GACAAGCAAUAUUACGUACG | -1.82 ± 0.077 | -0.508 ± 0.091
CUUGAGCAAUAUUACGCCGA | – | -2.7 ± 0.33
CGCGAGCAAUAUUACGCGCA | – | -2.91 ± 0.2
AACCAGCAAUAUUACGCACC | 0.0606 ± 0.077 | 0.308 ± 0.1
AUCGAGCAAUAUUACGAAAC | -2.27 ± 0.31 | –
AUGAAGCAAUAUUACGUUGC | -3.64 ± 0.2 | -3.01 ± 0.26
GCACAGCAAUAUUACGCAGG | -3.5 ± 0.18 | -2.74 ± 0.18

Sequence | self-splicing fitness (ln) (30 °C) | self-splicing fitness (ln) (37 °C)
AGGGAGCAAUAUUACGAGAC | -3.09 ± 0.4 | -2.77 ± 0.36
ACAGAGCAAUAUUACGCAGA | – | -2.25 ± 0.33
UACCAGCAAUAUUACGUUAA | -1.36 ± 0.073 | -0.903 ± 0.081
AUACAGCAAUAUUACGUGCU | -3.03 ± 0.15 | -1.18 ± 0.12
AGUUAGCAAUAUUACGUGCU | -2.35 ± 0.14 | -1.78 ± 0.21
CUAGAGCAAUAUUACGAACC | -1.8 ± 0.47 | –
GUUAAGCAAUAUUACGGAUG | -3.1 ± 0.28 | -0.786 ± 0.16
CCCUAGCAAUAUUACGCUCU | -4.04 ± 0.28 | -1.45 ± 0.2
UCGGAGCAAUAUUACGACGG | -3.56 ± 0.43 | -1.36 ± 0.29
UACAAGCAAUAUUACGCUCA | -0.545 ± 0.087 | -0.0026 ± 0.12
UCUUAGCAAUAUUACGCCAU | -2.69 ± 0.3 | -2.26 ± 0.42
AAAGAGCAAUAUUACGCACU | -1.46 ± 0.12 | -0.12 ± 0.15
UACCAGCAAUAUUACGGGUC | -2.46 ± 0.13 | -1.99 ± 0.18
CUGUAGCAAUAUUACGUUAA | -3.31 ± 0.33 | -1.49 ± 0.23
AUCCAGCAAUAUUACGGUGC | -1.6 ± 0.096 | -1.27 ± 0.14
AUCCAGCAAUAUUACGUGAC | -1.03 ± 0.077 | -0.702 ± 0.11
AGCGAGCAAUAUUACGUGUG | -3.86 ± 0.22 | -2.88 ± 0.17
CACAAGCAAUAUUACGCCUA | -1.01 ± 0.091 | -0.204 ± 0.085
CAUAAGCAAUAUUACGAUUA | -1.64 ± 0.14 | -1.4 ± 0.14
CUGGAGCAAUAUUACGUAGG | -1.78 ± 0.071 | -1.4 ± 0.095
GGCUAGCAAUAUUACGGAAU | -0.705 ± 0.072 | -0.0885 ± 0.1
UAUUAGCAAUAUUACGGAAA | -1.81 ± 0.48 | -1.98 ± 0.46
ACCGAGCAAUAUUACGCACG | -3.67 ± 0.31 | -3.29 ± 0.33
UUCCAGCAAUAUUACGAAGU | – | -1.47 ± 0.32
CACAAGCAAUAUUACGGACU | -2.54 ± 0.14 | -2.11 ± 0.14

Sequence | self-splicing fitness (ln) (30 °C) | self-splicing fitness (ln) (37 °C)
UGAGAGCAAUAUUACGCCGG | -3.37 ± 0.47 | –
AUCAAGCAAUAUUACGAAUU | -3.12 ± 0.14 | -1.21 ± 0.14
UAACAGCAAUAUUACGUUUA | -0.893 ± 0.063 | -0.563 ± 0.071
GUUGAGCAAUAUUACGUGCC | -3.02 ± 0.45 | –
UAGUAGCAAUAUUACGCGAU | -2.23 ± 0.42 | -0.904 ± 0.3
CGCUAGCAAUAUUACGCGAG | -2.93 ± 0.28 | -2.56 ± 0.21
UGUCAGCAAUAUUACGUACG | -0.208 ± 0.15 | 0.45 ± 0.15
CGCCAGCAAUAUUACGAGUC | -3.11 ± 0.28 | -1.56 ± 0.24
GAACAGCAAUAUUACGUGAU | -0.746 ± 0.058 | -0.432 ± 0.075
UGGUAGCAAUAUUACGAGGA | -2.9 ± 0.26 | -2.09 ± 0.32
AGGGAGCAAUAUUACGUAAG | -3.17 ± 0.2 | -2.28 ± 0.3
AUACAGCAAUAUUACGUGUG | -1.73 ± 0.051 | -0.977 ± 0.062
CACUAGCAAUAUUACGUACC | -3.22 ± 0.18 | -2.55 ± 0.24
UCGCAGCAAUAUUACGCCCA | -0.827 ± 0.19 | 0.0722 ± 0.18
CUAUAGCAAUAUUACGGAUU | -3.43 ± 0.24 | -2.29 ± 0.24
UCGUAGCAAUAUUACGUUGC | -3.02 ± 0.47 | –
GUGAAGCAAUAUUACGGUGC | -1.74 ± 0.27 | -0.977 ± 0.27
GUUGAGCAAUAUUACGACGC | -1.95 ± 0.22 | 1.05 ± 0.26
AUUGAGCAAUAUUACGACAU | -0.372 ± 0.013 | -0.153 ± 0.033
AAAGAGCAAUAUUACGAGCU | – | -2.09 ± 0.28
GAUAAGCAAUAUUACGUCGA | -1.54 ± 0.14 | -0.37 ± 0.13
GCAUAGCAAUAUUACGCUUC | – | -2.69 ± 0.19
GUUAAGCAAUAUUACGUAGA | -3.06 ± 0.16 | -0.537 ± 0.12
UACUAGCAAUAUUACGUAGU | -3.62 ± 0.22 | -1.65 ± 0.25
AGAUAGCAAUAUUACGGAGA | -1.91 ± 0.18 | -2.76 ± 0.38

Sequence | self-splicing fitness (ln) (30 °C) | self-splicing fitness (ln) (37 °C)
CCUGAGCAAUAUUACGGUAU | -3.02 ± 0.16 | -2.61 ± 0.21
GGGCAGCAAUAUUACGAGCG | -0.755 ± 0.1 | 0.344 ± 0.12
UCCUAGCAAUAUUACGUUCC | -2.61 ± 0.27 | -1.72 ± 0.4
GCCUAGCAAUAUUACGCCGG | – | -3.09 ± 0.37
AUAGAGCAAUAUUACGUCUU | 0.446 ± 0.074 | 0.419 ± 0.087
AAUCAGCAAUAUUACGGGCA | -0.515 ± 0.091 | -0.146 ± 0.12
CCCGAGCAAUAUUACGUGGG | -3.97 ± 0.19 | -2.79 ± 0.19
UUGUAGCAAUAUUACGCACU | 0.662 ± 0.21 | 0.253 ± 0.19
CAUCAGCAAUAUUACGGUCU | -2.82 ± 0.1 | -2.22 ± 0.15
CAACAGCAAUAUUACGUCCG | -0.0787 ± 0.06 | 0.513 ± 0.076
AAAGAGCAAUAUUACGCGUC | -2.18 ± 0.2 | -2.6 ± 0.21
CCUCAGCAAUAUUACGUGCC | -2.39 ± 0.17 | -2.39 ± 0.31
GCAUAGCAAUAUUACGAGGU | -3.73 ± 0.4 | -2.07 ± 0.4
UAACAGCAAUAUUACGCCCU | -1.18 ± 0.08 | 0.471 ± 0.12
UCGUAGCAAUAUUACGCAUC | – | -2.63 ± 0.36
CGGAAGCAAUAUUACGACUG | -2.02 ± 0.28 | -1.12 ± 0.23
AGAAAGCAAUAUUACGUACG | -1.26 ± 0.12 | 0.0255 ± 0.13
UUGCAGCAAUAUUACGAAAU | -2.39 ± 0.22 | -2.33 ± 0.39
GCUAAGCAAUAUUACGGUGG | -3.83 ± 0.23 | -1.82 ± 0.21
UUUCAGCAAUAUUACGGUAA | -0.255 ± 0.1 | -0.168 ± 0.084
UUAGAGCAAUAUUACGAGAU | – | -2.03 ± 0.43
UAUGAGCAAUAUUACGGGUG | -2.3 ± 0.15 | -1.06 ± 0.16
GCAAAGCAAUAUUACGUUUG | -4.2 ± 0.17 | -3.24 ± 0.15
AUGAAGCAAUAUUACGUUGG | -2.72 ± 0.16 | -1.58 ± 0.2
